For 4 proteins, Km, Vmax and Vmax/Km results are on record in publication PMC4893494, “Identification and Characterization of Five BAHD Acyltransferases Involved in Hydroxycinnamoyl Ester Metabolism in Chicory” (Frontiers in Plant Science, 2016).

A word on the Km: it is the substrate concentration at which the rate is half of its maximum. The term Vmax denotes the top rate of the reaction or transport when substrate is in excess.

Common to all, as to assay: HPLC-UV of product, Michaelis-Menten
Assay type in all cases: biochemical, Cichorium intybus

Substrate in data set [1]: O=C(O)[C@]1(O)C[C@@H](O)[C@@H](O)[C@H](O)C1
Particulars: acyl acceptor varied, saturating caffeoyl-CoA (800 μM), 50 mM phosphate pH 7.1, room temperature. The text has this:
HPLC-UV of product, Michaelis-Menten on HQT3 (CiHQT3)

Substrate in data set [2]: O=C(O)C1=C[C@@H](O)[C@@H](O)[C@H](O)C1
Conditions: acyl acceptor varied, saturating p-coumaroyl-CoA (800 μM), 50 mM phosphate pH 7.1, room temperature. The text has this: HPLC-UV of product, Michaelis-Menten on HCT1 (CiHCT1)

Substrate in data set [3]: O=C(O)[C@]1(O)C[C@@H](O)[C@@H](O)[C@H](O)C1
Particulars: acyl acceptor varied, saturating caffeoyl-CoA (800 μM), 50 mM phosphate pH 7.1, room temperature. An excerpt: HPLC-UV of product, Michaelis-Menten on HQT2 (CiHQT2)
The source holds these as a separate data set.

Substrate in data set [4]: O=C(O)[C@]1(O)C[C@@H](O)[C@@H](O)[C@H](O)C1
Conditions: acyl acceptor varied, saturating caffeoyl-CoA (800 μM), 50 mM phosphate pH 7.1, room temperature. The text has this: HPLC-UV of product, Michaelis-Menten on HQT1 (CiHQT1)
The source holds these as a separate data set.

B1: HQT3 (CiHQT3) (Cichorium intybus) (protein)
chain: MGSDHKTMKINIKQSSLVQPSKPTIPSNKKLWTSNLDLVVGRIHILTVYFYRPNGCSNFFDPVVMKKALADVLVSFYPFAGRLSRDQNGRLEINCNGEGVLFVEAESDSTLDDFGEFTPSPELRRLTPTVDYSGDISSYPLFFAQVTHFKCGGVGLGCGVFHTLADGLSSIHFINTWSDMTRGLSIAVPPFTDRTLLRARETPTPTFDHVEYHLPPTMNTTSQNPKSSRKPSTNMLKLTIDQLNALKTAAKNDGGNTAYSTYEILAAHLWRCACKARGLPNDQQTKLYVATDGRSRLSPQLPPGYLGNVVFTATPMAKSGDLTTQPLSNSASLIRSTLSKMDNEYLRSAIDYLEVQPDLSALIRGPSYFASPNLNINTWTRLPVHDADFGWGRPVFMGPAVILYEGTIYVLPSPNNDRSMSLAVCLDADEQPLFEKFLYEF
Take B1: in data set [1], the Michaelis-Menten constant (Km) was found to be 318 ± 71 µM, the Vmax came to 9.9 µmol/min/mg and the Vmax/Km was found to be 31200 µL/min/mg.

B2: HCT1 (CiHCT1) (Cichorium intybus) (protein)
chain: MKIEVRESTMVRPAEETPKINLWNSNVDLVVPNFHTPSVYFYRPNGATNFFDPKVMKDALSKALVPFYPMGGRLKRDEDGRIEIDCQGQGVLFVEAESDGMVDDFGDFAPTLELRKLIPAVDYSQGIESYPLLVLQVTYFKCGGVSLGVGMQHHAADGASGLHFINTWSDMARGLDLTIPPFIDRTLLRARDPPQPAFEHVEYQPAPQMKTTSKSTDEQPVPETAVAIFKLTRDQLNALKAKSKENGNTINYSSYEMLSGHVWRCVCKARNLPADQDTKLYIATDGRARLRPSLPPGYFGNVIFTTTPIAVAGELMSNPTWYAAGKIHDGLAKMDNDYLKSALDYLELQPDLKALVRGAHSFRCPNLGITSWARLPIHDADFGWGRPIFMGPGGIAYEGLSFVLPSPINDGSLSIAISLQAEHMKVFSKFLYDI
For the protein B2, in data set [2], the Km was 320 ± 40 µM, the Vmax amounted to 14.2 µmol/min/mg and the Vmax/Km was found to be 44400 µL/min/mg.

B3: HQT2 (CiHQT2) (Cichorium intybus) (protein)
chain: MGSDQKMMMNINIKKSSIIPPSETIPECPKQLWTSNLDLVVGRIHILTVYFYRPNGSANFFDPNVMKKALADVLVSFYPMAGRLDRDESGRIVINCNGEGVLFVEAESDSTLDDFGEFTPSPEFRRLTPTVDYSGDISSYPLFFAQVTHFKCGGVALGCGVFHTLSDGLSSLHFINTWSDMARGLSVAIPPFIERTLLRAREPPTPTHDHVEYHEPPSMSPTAQKPGSGSSTTMLKLTLDQLNTLKVKAKIESGQTHSTYEILAAHIWRCACKARGLPDDQLTKLYVATDGRSRLSPRLPPGYLGNVVFTATPVAKSGDLTSGSLSNTAKLIHTTLTKMDDDYLRSAIDYLESQKDLSALIRGPTYFASPNLNINAWTRLPVHDADFGYGRPIFMGPAQILYEGTVYVLPSPNNDRSVSLAVCLDANEQSLFEKFLYEL
As for B3, in data set [3], the Km is 613 ± 53 µM, the Vmax was 8.04 µmol/min/mg and the Vmax/Km turned out to be 13200 µL/min/mg.

B4: HQT1 (CiHQT1) (Cichorium intybus) (protein)
chain: MTNGAGSEKMKVTVKESVIVKPSKTTPIQRLWNSNIDLLVGRIHLLTIYFYRPNGSSDFFDSGVLKKALSDVLVSFFPMAGRLGKDGDGRVEINCNAEGVWFVEAEADCRIDDFGEITPSPELRRLAPTVDYSGDISSYPLFITQVTRFKCGGVSLGCGVHHTLSDGFSSLHFINTWSDVARGLSVAIPPFNDRTLLRARDPPTPMYDHVEYHPPPSLITPPENHKPPASTTILRLTLDQINDLKSKGKGDGSVYHSTFVIIAAHLWRSACKARGLSDDQPTKLYVATDGRSRLIPPLPSGYLGNVLFTTTPMAKSGEFKSESLADTARRIHNELARMDDQYMRSAIDYLELQSDLSALVRGPTYFASPNLNVNSWTRLPLYESDFGWGRPIFMGPASILYEGTIYIIPSPTDDRSLKLAVCLDSDHMSLFQKYLYDF
Regarding B4, in data set [4], the Km was determined as 162 ± 34 µM, the maximal velocity (Vmax) came out at 6.78 µmol/min/mg and the Vmax/Km was found to be 42000 µL/min/mg.
